Target: B.1.1.529 (BA.1) S1 + S2 trimer-His Recombinant Protein (SARS-CoV-2) (UniProt P0DTC2)
Test: cryo-EM structure

For “B.1.1.529 (BA.1) S1 + S2 trimer-His Recombinant Protein (from UniProt P0DTC2 324-533) (natural protein)”, which stoichiometry N is on record?
The stoichiometry N was 3.

Reference: article PMC10844294
